{"source": "paper PMC10113271", "about": "(2023)", "binders": {"B1": {"name": "FITC-labeled c-Myb TAD peptide (peptide)", "peptide": "{FITC-βAla}-GYNDEDPEKEKRIKELELLLMSTENELKGQQAL"}}, "target": "KIX domain of CREB-binding protein (residues 586–672 of mouse CBP) (mouse, UniProt P45481 586-672)", "sequence (P45481 586-672)": "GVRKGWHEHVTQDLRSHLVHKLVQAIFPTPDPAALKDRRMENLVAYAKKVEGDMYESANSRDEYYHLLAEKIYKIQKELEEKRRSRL", "assay": "FP", "note": "Where no end group is shown, it is not given here. The star is where a group is joined. FITC = O=C1OC2(c3ccc(O)cc3Oc3cc(O)ccc32)c2ccc(NC(=S)*)cc21; βAla = NCCC(=O)O", "data": [{"binder": "B1", "values": [{"measurement": "Kd", "result": 59, "unit": "nM"}]}]}
